US20200399344A1 (SHATTUCK LABS, published 2020)
“And” between values parts separate entries of the source, which are not always exact repeats. Equal values may be shown once.

How the values were obtained:
[1] = target: T1, anti-mFc IgG antibody (plate-bound); assay: Fc ELISA: coat Anti-mFc (Jax), detect Anti-mFc-HRP (Jax)
T1 construct: also called anti-Fc antibody
Source text: A mouse whole IgG was used to generate a standard curve.

[2] = target: T2, recombinant mCD47 (mCD47-His) protein (mouse, UniProt Q61735 19-140, limits assumed); assay: sandwich ELISA, anti-NKG2a antibody coated, mCD47-His detection (FIG. 38)
T2 construct: not shown: His tag
T2 sequence (looked up): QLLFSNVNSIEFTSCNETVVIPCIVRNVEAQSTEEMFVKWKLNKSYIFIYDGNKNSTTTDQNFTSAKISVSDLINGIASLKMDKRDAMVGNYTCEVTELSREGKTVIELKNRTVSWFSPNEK
Protocol: Increasing amounts of the mSIRPα-Fc-NKG2A chimeric protein was added and detected using mCD47-His. The CD86-Fc-NKG2A chimeric protein was used as a negative control.
To understand whether the mSIRPα-Fc-NKG2A chimeric protein can binds simultaneously to both anti-NKG2a and CD47, the following ELISA experiment was carried out. Briefly, and anti-NKG2a antibody was coated on plates. Increasing amounts of the mSIRPα-Fc-NKG2A and mCD48-Fc-NKG2A chimeric proteins were added to the plates for capture by the anti-NKG2a antibody. Further, recombinant mCD47 (mCD47-His) protein was added to the plate for capture by mSIRPα-Fc-NKG2A chimeric protein. The binding of the mCD47-His protein was detected using an anti-His HRP antibody.

[3] = target: T3, recombinant human CD28-His (rhCD28-His) (human, UniProt P10747 19-152); assay: ELISA: coat rhCD28-His (Acro), detection printed as Anti-hFc-HRP
T3 construct: also called Human CD28-His protein; recombinant CD28 protein; not shown: His tag
T3 sequence (P10747 19-152 limits assumed): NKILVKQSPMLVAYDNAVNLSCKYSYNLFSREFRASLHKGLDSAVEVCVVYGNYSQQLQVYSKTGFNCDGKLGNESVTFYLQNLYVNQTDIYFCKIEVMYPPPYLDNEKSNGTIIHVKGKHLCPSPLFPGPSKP
Protocol: To understand whether the CD80 and CD86 parts of the hCD80-Fc-NKG2A and hCD86-Fc-NKG2A chimeric protein can bind CD28, ELISA-based assays were performed. Briefly, recombinant CD28 protein was coated on plates and increasing amounts of the hCD80-Fc-NKG2A, hCD86-Fc-NKG2A, and mCD48-Fc-NKG2A chimeric proteins, and recombinant human CD86-Fc (rhCD86-Fc) protein was added to the plates for capture by the plate-bound recombinant CD28 protein. The mCD48-Fc-NKG2A chimeric protein, and recombinant human CDrhCD86-Fc protein was used as negative and positive controls, respectively. The chimeric proteins bound to the recombinant CD28 protein was detected using an anti-human Fc HRP.

[4] = target: T4, HLA class I histocompatibility antigen, alpha chain E (HLA-E), plate-bound recombinant protein (human, UniProt P13747 22-305, limits assumed); assay: Dual binding ELISA: coat mHLA-E (Novus) as printed, detect Anti-mCD48 (R&D), HRP Anti-Goat HRP
T4 construct: no tag named there; also called recombinant HLA-E protein
T4 sequence (P13747 22-305 limits assumed): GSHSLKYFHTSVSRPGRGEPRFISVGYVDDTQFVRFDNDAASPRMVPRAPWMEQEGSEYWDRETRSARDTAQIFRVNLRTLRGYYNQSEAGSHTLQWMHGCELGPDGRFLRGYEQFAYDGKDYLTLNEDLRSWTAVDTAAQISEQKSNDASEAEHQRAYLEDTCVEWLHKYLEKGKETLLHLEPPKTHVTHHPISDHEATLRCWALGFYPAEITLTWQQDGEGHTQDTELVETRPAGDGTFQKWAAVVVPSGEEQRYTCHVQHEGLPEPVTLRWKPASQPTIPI

B1: mouse CD48-Fc-NKG2A chimeric protein (Fc fusion)
chain: FQGHSIPDINATTGSNVTLKIHKDPLGPYKRITWLHTKNQKILEYNYNSTKTIFESEFKGRVYLEENNGALHISNVRKEDKGTYYMRVLRETENELKITLEVFDPVPKPSIEINKTEASTDSCHLRLSCEVKDQHVDYTWYESSGPFPKKSPGYVLDLIVTPQNKSTFYTCQVSNPVSSKNDTVYFTLPCDLARSVPRDCGCKPCICTVPEVSSVFIFPPKPKDVLTITLTPKVTCVVVDISKDDPEVQFSWFVDDVEVHTAQTQPREEQFNSTFRSVSELPIMHQDWLNGKEFKCRVNSAAFPAPIEKTISKTKGRPKAPQVYTIPPPKEQMAKDKVSLTCMITDFFPEDITVEWQWNGQPAENYKNTQPIMDTDGSYFVYSKLNVQKSNWEAGNTFTCSVLHEGLHNHHTEKSLSHSPGIIEGRMDTPYTEAKAQINSSMTRTHRDINYTLSSAQPCPHCPKEWISYSHNCYFIGMERKSWNDSLVSCISKNCSLLYIDSEEEQDFLQSLSLISWTGILRKGRGQPWVWKEDSIFKPKIAEILHDECNCAMMSASGLTADNCTTLHPYLCKCKFPI
notes: also called mCD48-Fc-NKG2A
In the case of B1, the EC50 [1] is reported as 0.938 nM and 0.436 nM, the binding result [2] is reported as “no binding” and the binding result [3] is reported as “no binding (tested: log[Agonist] about 2.7, ug/ml)”. The EC50 [4] was 537 nM and 381 nM.
